Source: PMC6414520, “CryoEM structure of adenovirus type 3 fibre with desmoglein 2 shows an unusual mode of receptor engagement” (Nature Communications, 2019)

B1: human adenovirus type 3 fibre knob (HAd3K), fibre residues 124-319, co-expressed with DSG2 EC2-EC3 (domain or fragment)
chain: NSIALKNNTLWTGPKPEANCIIEYGKQNPDSKLTLILVKNGGIVNGYVTLMGASDYVNTLFKNKNVSINVELYFDATGHILPDSSSLKTDLELKYKQTADFSARGFMPSTTAYPFVLPNAGTHNENYIFGQCYYKASDGALFPLEVTVMLNKRLPDSRTSYVMTFLWSLNAGLAPETTQATLITSPFTFSYIREDD
notes: fibre protein of human adenovirus type 3, knob, fibre residues 124-319; Trimer; also called HAd3 fibre knob; HAdK3; source: E. coli Rosetta(DE3)pLysS, pETDuet, co-expressed with EC2-EC3, complex purified (Ni-NTA, SEC)

What was measured:
[1] = target: human adenovirus type 3 fibre knob (HAd3K), fibre residues 124-319, co-expressed with DSG2 EC2-EC3 (human adenovirus type 3) (UniProt P04501); assay: cryo-EM structure; complex co-expressed in E. coli and co-purified (Ni-NTA, SEC); 150 mM NaCl, 3 mM CaCl2, 10 mM Tris-Cl pH 8.0; Volta phase plate; particles with one or two EC2-EC3 modules per knob trimer sorted by classification
[2] = target: the molecule itself; assay: as above

| Molecule | stoichiometry N (DSG2 per knob trimer) [1] | stoichiometry N (receptor per knob trimer) [1] | stoichiometry N [2] |
| --- | --- | --- | --- |
| human desmoglein 2 EC2-EC3 domains (DSG2 residues 100-337), co-expressed with HAd3K in E. coli (domain or fragment) | 2 | 1 |  |
| B1 |  |  | 3 |
